Data: the supplement of paper PMC9170038

Legend:
MS2 coat protein = assay: apparent KD of MS2 coat protein; higher = weaker reporter binding; settings: Eterna round: R107
Description: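 RNA-MaP round R107: designed RNA switches with theophylline, tryptophan, arginine or FMN aptamers are transcribed on-chip within common flanks. They are titrated with SNAP-549-labelled MS2 coat protein in RNA-MaP buffer (100 mM Tris pH 7.5, 80 mM KCl, 4 mM MgCl2), without ligand or with the indicated ligand. Median apparent KD per design.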

[1] = tested on: K4 kissing-loop RNA reporter; assay: apparent KD of K4 kissing-loop reporter; higher = weaker reporter binding; settings: Eterna round: R107;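 further: bound reporter read as fluorescence of individual clusters on recovered sequencing chips by microscopy, with normalized cluster intensities fitted with a binding model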
Description: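 RNA-MaP round R107: designed RNA switches with theophylline, tryptophan, arginine or FMN aptamers are transcribed on-chip within common flanks. They are titrated with a labelled K4 kissing-loop RNA reporter in RNA-MaP buffer (100 mM Tris pH 7.5, 80 mM KCl, 4 mM MgCl2), without ligand or with the indicated ligand. Median apparent KD per design.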

[2] = input ligand: theophylline 20 uM
[3] = input ligand: theophylline 2 mM
[4] = input ligand: tryptophan 2.4 mM

Sequence	apparent KD of MS2 coat protein (MS2 coat protein; input ligand: arginine 13.2 mM)	apparent KD of MS2 coat protein (MS2 coat protein; input ligand: none)	apparent KD of MS2 coat protein (MS2 coat protein; [2])	apparent KD of MS2 coat protein (MS2 coat protein; [3])	apparent KD of MS2 coat protein (MS2 coat protein; [4])	apparent KD of K4 kissing-loop reporter ([1]; input ligand: FMN 200 uM)	apparent KD of K4 kissing-loop reporter ([1]; input ligand: arginine 13.2 mM)	apparent KD of K4 kissing-loop reporter ([1]; input ligand: none)	apparent KD of K4 kissing-loop reporter [1, 2]	apparent KD of K4 kissing-loop reporter [1, 4]
GCACAAGAUGGAAGGAGCGCUGGUAUAAGUCACAUGAGGAUCACCCAUGUGCUCCUUGCCGAGCAGGUAGGUCGCCAUCUUGUGC [SSAB NP+V+V2 #5]	22.3 nM	42 nM	71 nM	66.9 nM	68.1 nM					
ACGGAUCGGAAACGAUCCGCGGCGCGGGUGCGAGGACCGGUACGGCCGCCACUCGGGUAACAUGAGGAUCACCCAUGUCCGAUUU [ETA NP+V+V2 #12]	65.7 nM		101 nM	129 nM						
GCAACAUUGGUAGGAUAUCAUUCUGAGUGAUGUUCAGGGUUCAGCUAACGAAAGUUAGUUGUACCAUGAGAAGGACUAAUGUUGC [Omei KL FMN B SS A v3]						337 nM	766 nM	1220 nM	1060 nM	915 nM
GCGCGUCAUGUCAGCGGUGCCUAUGUCGAUACCAGCGCCGCAAGGCGCCCUUGGCAGCGACGCGCUGGAGUGAUGUUCCAGCGUG [#2 Exclusion - Theophylline A Attempt #11 (HarryS)]						148 nM	127 nM	153 nM	138 nM	132 nM
GGAACUACGACGGCCGCCACUCUGUAUCCCAACGUUAAGGUCCUAACUGCAAGUGAUGUUUGUGCGAGGACCGGGUCUCCCUUGC [theeternabot_exclusion_KL_Trp_B_30]						258 nM	213 nM	272 nM	218 nM	217 nM
UCCUGCAAUGGACCACGAAAGUGGAUCGAUACCAGAGUCGAAAGACUCCCUUGGCAGCGAGUGAUGUUCGAAGCAGGUAAAUAAA [#SwitchBubble 21 #K4Late]						492 nM	483 nM	478 nM	410 nM	358 nM
GCCUACGAUGCAGGAUAUAGCUCGCGAGUGAUGUUCGCAGCUGUAUGGUAGUAAACUUCCACGUGUCUAGAAGGGCAUCGUAGGC						111 nM	79.7 nM	91.6 nM	80 nM	90.7 nM
UGAUACCAGACUGAUACCAGCUAGUGAUGUUAGCUGAUCUAAGGACCGUCAAAGACGGCUAGCCCUUGGCAGCAGUCUGGUAUCU [TheoBX 13 #SwitchBubble #StaticStem]						120 nM	105 nM	121 nM	130 nM	121 nM
GGUUCUGUUUUAGGUUUAGUGAUGUUGAAUCGAGGACCGGUACGGCCGCCACUCGGUGACGUCGUAACUUUGGAGGUCCUAACCA [theeternabot_exclusion_KL_Trp_A_47]						764 nM	642 nM	665 nM	658 nM	438 nM
UCUAACGUUGAGGCGGCAGCGGGCCCAUCUAAGGAUAUCGGUUUACCGAGAAGGUAGUUGGACGAGAGUGAUGUUCUAUUGAGAG [theeternabot_sameState_KL_FMN_A_18]						207 nM	211 nM	254 nM	642 nM	159 nM
GUGUAAGUGAUGUUUGCACACACGUCGGAUACCAGAGACUUUAGCCUCCCUUGGCAGCCGCCGGCCAUAAGAGCAAGUCGAUUUA [theeternabot_sameState_KL_Theo_A_20]						197 nM	186 nM	210 nM	194 nM	176 nM
GCACGUACCCGAAGGAGCGUGCAAGAAUCGUAGUGAUGUUACGGAGAGUGUCACGCCGUCGCACAGGUAGGUCGCGGGUACGUGC						78.3 nM	80.3 nM	67.5 nM	63.2 nM	61.4 nM
AAACAUCACUGGGAGUGAUGUUCUCAGUGACGAGGACCGGUACGGCCGCCACUCGCGAGAGAUCUAGUCUAGUCUUGACUGCAUU [Excl Tryptophan A V13]						282 nM	284 nM	292 nM	359 nM	333 nM
AGAUCUGUAACAGAUACCAGAGGACGAUGAUCGGAUAGUGAUGUUAUCUGUCAGUCGUCGCUCCCUUGGCAGCUGUUACAGAUCA [Omei KL Theo B SS B v1]						176 nM	147 nM	174 nM	135 nM	157 nM
GCCGUACGCAUGGAUACCAGCGCUCGUCACCUAGCAGUGAUGUUGCUAAUGCCACGAGGACGCCCUUGGCAGCCAUGCGUACGGC						116 nM	101 nM	102 nM	83.3 nM	107 nM
UCCGUUGCGGCGGCCGCCACUGACUUAUUGAUUAGGUUGCCAGUGAUGUUGGCCACCGGUCAAUACAGGACCGGGCCAUAGCGGG [Retive]						160 nM	208 nM	259 nM	148 nM	110 nM
UGUCAUUGGUCGGCCGCCACUUCAUAGAGAGUGAUGUUCUUUAAGACGGAUCGAAAGAUCUGUCGAAGGACCGGGACCGAUGACU [FiskerMod 10 - Jieux - Same State - Tryptophan B]						924 nM	527 nM	1390 nM	777 nM	262 nM
AUUUAGACGAGUGAUGUUCGUGUUAUUACAGAGGAUAUGCGUAAAAGCAGAAGGCUGUAUUUAUAUUUGUUAUGUAAUUUUAAAA [JR_ExcFMNA_Sub006]						75.2 nM	105 nM	85.9 nM	94 nM	63.9 nM
GAGCGGUGGAGGUUACCGCUAUUCUGAGAAGGAGCGCAGAAGACUGCAGGUAGGUCGCUUAGAGCUUGCAGUGAUGUUGCAAGUU [KL-SSArg-A13]						173 nM	122 nM	141 nM	160 nM	127 nM
AAUAUAGUGAUGUUAUAUAAGAAGGAGUUACGAGGACCGGUACGGCCGCCACUCGAAACGAGUGAGGAUUUGGGAGAUUGGGUUC [SSTryptA.L]						465 nM	539 nM	393 nM	302 nM	283 nM

Sequence	apparent KD of MS2 coat protein (MS2 coat protein; input ligand: arginine 13.2 mM)	apparent KD of MS2 coat protein (MS2 coat protein; input ligand: none)	apparent KD of MS2 coat protein (MS2 coat protein; [2])	apparent KD of MS2 coat protein (MS2 coat protein; [3])	apparent KD of MS2 coat protein (MS2 coat protein; [4])	apparent KD of K4 kissing-loop reporter ([1]; input ligand: FMN 200 uM)	apparent KD of K4 kissing-loop reporter ([1]; input ligand: arginine 13.2 mM)	apparent KD of K4 kissing-loop reporter ([1]; input ligand: none)	apparent KD of K4 kissing-loop reporter [1, 2]	apparent KD of K4 kissing-loop reporter [1, 4]
AUGUUGAGCGGAAGGAGCGGCUGAGCCAGUGAUGUUGGUUAAUCCAAGUGAUGUUGGAAAAGCCAGGUAGGUCGCCGCUUUACGU [whbob_SS_Arginine_B_2t144]						1010 nM	741 nM	1040 nM	926 nM	832 nM
AGGUCACCACUACAGUGAUGUUGUGGAGAGCAGGAUAUGCAGAAAUGCAGAAGGGCUCGCUCUCGGUGACCGAAUGAAACAUUCA [Omei KL FMN A SS A v7]						404 nM	670 nM	766 nM	476 nM	704 nM
UUCGGAUAAGUCCUUCCGAAGAAGCCGGAAGGAGCGACUCAAUAGUCAGGUAGGUCGCCGGCAAGCGUAGUGAUGUUAUGCUCAC [Arg A SS t6]						966 nM	598 nM	882 nM	713 nM	740 nM
ACGUGAAGCGACUCCUAGUUAAACCGGGAAGGAGCGCGGAUAACCGCAGGUAGGUCGCCCGGAAGCCGGACCAGUGAUGUUGGUC [Exclusion Arginine A Gf 26]						263 nM	191 nM	207 nM	217 nM	198 nM
AAUUCAAACUGAAGGAGCGAGCAAAUCGGAGUGAUGUUCCAAGCGAGUGAUGUUCGCAUAGCUCAGGUAGGUCGCAGUUUGGAUA [Same State Arginie B GF 13]						120 nM	95.2 nM	107 nM	101 nM	101 nM
UCUGGAGGAUAUGAUACCAGCAGUGAGAGAGAGGAAGUAUAGUGAUGUUAUAUGAGAGAAUGCCCUUGGCAGCGUGUGUAGUGGG [SSTheophylB.L]						175 nM	137 nM	135 nM	151 nM	86.6 nM
AAGUAGCUCUCGGCCGCCACUCCUCAGUGAUGUUGAGAUAUUAACUGCCAAUUGGCGUAUUUAAAGAGGACCGGGAGAGCUACAA [AK2 SS Tryptophan B]						389 nM	389 nM	476 nM	397 nM	129 nM
UUGUUUGGUUGAGAGGUUGGGCGAGAUGAUACCAGUAUAGAAGAGUACCCUUGGCAGCAUAGGAGAGAUAUAGUGAUGUUGUAUG [SSTheophA.T]						437 nM	355 nM	480 nM	494 nM	333 nM
AGGCACGAGCAAGGAUAUCGAGUAGAGUGAUGUUCUGCCUGGGUUGGCGCGGAAGGGCCUUCCCAGCGAGAAGGUGCUCGUGCCU [#2 Same State - FMN A Attempt #10 (HarryS)]						293 nM	569 nM	838 nM	615 nM	786 nM
UGUCGGUGAAGAAUGUUAGUGAUGUUGGCACGAGGACCGGUACGGCCGCCACUCGGUAAUCAUCGCAAUUAUCGAUGGCGUAGCC [theeternabot_exclusion_KL_Trp_A_3]						183 nM	170 nM	147 nM	166 nM	182 nM
AGUUUAUAGGAGGAUACCAGUACGGAUAAGGUACGUUAAUAGUAGAGUGAUGUUCUAAAGUACCCUUGGCAGCUUAGAUUGAGUU [#27 K4 Theophylline B Exclusion]						110 nM	171 nM	130 nM	133 nM	101 nM
ACUGGGUUGACGAAAGUCAACAAAAGAGAAGGAGCGCACGAAAGUGCAGGUAGGUCGCUCAUUCCAGUGAUGUUGGAUCACCAGA [#SwitchBubble 18 #K4Late]						242 nM	366 nM	453 nM	279 nM	199 nM
GGUGCUGUUUGUGCCGCCUUCCUCGUUCCUCGAGGACCGGUACGGCCGCCACUCGAGUGAUGUUUGGGUAGCGAUCCCUGCUAGC [Bdazzled - #14 Exc. Tryptophan A]						470 nM	538 nM	1370 nM	566 nM	413 nM
GCUACCUAUGCAGGAUAUGGUAUUACGAGUGAUGUUCGAGGCGAAUAGAGUGAUGUUCUAUUUCCACCAGAAGGGCAUAGGUAGC						143 nM	97.1 nM	125 nM	136 nM	124 nM
AGACGCCAGUCGGCCGCCACUCACAGCAGUGAUGUUGCUGAAAAUCUAGAAGAGUGAUGUUCUUAGAGGACCGGGACUCCAGUCG [Same State Tryptophan B GF 6]						162 nM	153 nM	169 nM	141 nM	172 nM
CGUCUAUAGCAGGAUACCAGUACCCAUUAUGUACGUUUAUAGUAGAGUGAUGUUCUAAAGUACCCUUGGCAGCUUCCUGUGACCC [#24 K4 Theophylline B Exclusion]						179 nM	189 nM	189 nM	206 nM	163 nM
AAGUGAUGUUGUAGUGAUGUUGUGAUGUUGCAGGAUAUAUAGUGAUGUAGAAGGGUAAGUACUGAUUUUUUUUGUGAGUGAUGUU [bbgvzrmullin]						87.9 nM	41.6 nM	75.9 nM	54.1 nM	71.4 nM
UGGAGUUGACGAAGAGUCAACUCCUGAGAUACCAGUGACGAAAGUCACCCUUGGCAGCUCUCUGCCAGUGAUGUUGGUUUAUAAG [#07 K4 Theophylline A Same State]						139 nM	89.4 nM	144 nM	177 nM	117 nM
UGUCAUUGGUCGGCCGCCACUAAAAUAAAAGAGUGAUGUUCUUAAAAGACGGACAAAGUCUGUCAUAGGACCGGGACCGAUGACU [TrypBS 23 #SwitchBubble #StaticStem]						547 nM	425 nM	529 nM	436 nM	202 nM
